According to US20180312608A1 (NEW YORK UNIVERSITY, published 2018):

Key:
Assay in all cases: Biacore (SPR), tau peptide
[1] = biological target: T1, Tau379-408 [P-Ser396/404] (phosphoserine at Ser396 and Ser404 (Tau numbering, SEQ ID NO:1))
T1 construct: 30 amino acid synthetic peptide; also called Tau 379-408 (PSer396/PSer404)

Tau379-408 = biological target: T2, Tau379-408
T2 construct: 30 amino acid synthetic peptide, not phosphorylated; also called Tau 379-408 (Ser396/Ser404)

[2] = biological target: T3, Tau386-408 [P-Ser396/404] (phosphoserine at positions 11 and 19 (Ser396 and Ser404 of Tau))
T3 construct: 23 amino acid peptide; also called Tau 386-408 (PSer396/PSer404)

Tau386-408 [P-Ser404] = Tau386-408 [P-Ser404] (phosphoserine at Ser404 of Tau (position 19 of SEQ ID NO:7))
Tau386-408 [P-Ser404] (phosphoserine at Ser404 of Tau (position 19 of SEQ ID NO:7)), sequence (peptide, as listed by the source): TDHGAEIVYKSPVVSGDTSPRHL

T1 sequence (peptide, as listed by the source): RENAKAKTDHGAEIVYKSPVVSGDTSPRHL

B1: Antibody 4E6G7 (antibody, V domains shown)
VH: VQLQQSGAELVQPGASVKLSCTASGFNIKDTSMHWVRQRPEQGLEWIGRIAPANGNTKYDPKFQGKATITTDTSSNTAYLQLSSLTSEDTAVYYCSGSGNYDWGQGTTLTVS
VL: DIQMNQSPSSLSASLGDTITISCHASQNINVWLSWYQQKPGNIPKLLIFEASTLYTGVPSRFSGSGSGTGFTLTISSLQPEDIATYYCQQGQSYPWTFGGGTKLEIKR
notes: constant regions are not
- Kd [1]: 271 nM
- Kd (Tau379-408): 212 nM
- Kd [2]: 469 nM
- Kd (Tau386-408 [P-Ser404]): 278 nM
